# Laboratory results: US20240132578A1
# Assays:
# Assay in all cases: cell-based or functional assay
# [1] = biological target: HIV-1 92UG024 Env (HIV-1)
# [2] = biological target: HIV-1 Env of isolate MGRM-AE-008 (pseudovirus) (HIV-1)
# [3] = biological target: HIV-1 Env of isolate MGRM-AG-008 (pseudovirus) (HIV-1)
# [4] = biological target: HIV-1 Env of isolate MGRM-F1-017 (pseudovirus) (HIV-1)
# [5] = biological target: HIV-1 JR-CSF Env I414A (HIV-1 (isolate JR-CSF)) (UniProt P20871)
# [6] = biological target: HIV-1 JR-CSF Env K421A (HIV-1 (isolate JR-CSF)) (UniProt P20871)
# [7] = biological target: HIV-1 JR-CSF Env N396A (HIV-1 (isolate JR-CSF)) (UniProt P20871)
# HIV-1 NL43 Env (HIV-1) = biological target: HIV-1 NL43 Env (HIV-1)
# [8] = biological target: HIV-1 envelope glycoprotein (Env) of isolate MG RM-AG-011 (HIV-1)
# [9] = biological target: HIV-1 92RW024 envelope glycoprotein (Env) on pseudovirus (HIV-1 (clade A))
# [10] = biological target: HIV-1 92TH021 envelope (Env) on pseudovirus (HIV-1)
# [11] = biological target: HIV-1 Env of isolate 92RW026 (clade A pseudovirus) (HIV-1)
# [12] = biological target: HIV-1 Env of isolate 92UG024 (clade D pseudovirus) (HIV-1)
# [13] = biological target: HIV-1 Env of isolate 94KE105 (listed under clade A; pseudovirus) (HIV-1)
# [14] = biological target: HIV-1 Env of isolate 94UG103 (Clade A) (HIV-1)
# [15] = biological target: HIV-1 Env of isolate CAAN.A2 (Acute), clade B (HIV-1)
# [16] = biological target: HIV-1 Env of isolate MGRM-A-003 (clade A pseudovirus) (HIV-1)
# [17] = biological target: HIV-1 Env of isolate MGRM-G-006 (subtype G) (HIV-1)
# [18] = biological target: HIV-1 Env of isolate PVO.4 (Acute), clade B (HIV-1)
# [19] = biological target: HIV-1 Env of isolate TRO.11 (Acute), clade B (HIV-1)
# [20] = biological target: HIV-1 Env of pseudovirus MGRM-F1-014 (clade F) (HIV-1)
# [21] = biological target: HIV-1 MGRM-AE-001 Env (pseudovirus) (HIV-1)
# [22] = biological target: HIV-1 MGRM-AG-005 Env (pseudovirus) (HIV-1)
# [23] = biological target: HIV-1 Env of isolate 92UG001 (pseudovirus) (HIV-1)
# [24] = biological target: HIV-1 Env of isolate 92WR026 (pseudovirus) (HIV-1)
# [25] = biological target: HIV-1 Env of isolate MGRM-A-009 (subtype A) (HIV-1)
# [26] = biological target: HIV-1 Env of isolate MGRM-AG-005 (subtype AG) (HIV-1)
# [27] = biological target: HIV-1 Env of isolate MGRM-AG-011 (subtype AG) (HIV-1)
# [28] = biological target: HIV-1 Env of isolate MGRM-C-002 (HIV-1)
# [29] = biological target: HIV-1 Env of isolate MGRM-C-005 (HIV-1)
# [30] = biological target: HIV-1 Env of isolate MGRM-D-002 (pseudovirus) (HIV-1)
# [31] = biological target: HIV-1 Env of isolate MGRM-F1-004 (HIV-1)
# [32] = biological target: HIV-1 Env of isolate MGRM-F1-022 (HIV-1)
# [33] = biological target: HIV-1 Env of pseudovirus isolate MGRM-C-017 (clade C) (HIV-1)
# [34] = biological target: HIV-1 Env of pseudovirus isolate MGRM-C-024 (clade C) (HIV-1)
# [35] = biological target: HIV-1 Env of pseudovirus isolate MGRM-C-025 (clade C) (HIV-1)
# [36] = biological target: HIV-1 Env of isolate MGRM-G-025 (subtype G) (HIV-1)
Substance,"IC50, pseudovirus neutralization [1] [µg/mL]","IC50 (µg/mL), pseudovirus neutralization [2] [µg/mL]","IC50 (µg/mL), pseudovirus neutralization [3] [µg/mL]","IC50 (µg/mL), pseudovirus neutralization [4] [µg/mL]",Fold IC50 increase relative to wild-type (pseudovirus neutralization) [5] [fold],Fold IC50 increase relative to wild-type (pseudovirus neutralization) [6] [fold],Fold IC50 increase relative to wild-type (pseudovirus neutralization) [7] [fold],"IC50, pseudovirus neutralization (HIV-1 NL43 Env (HIV-1)) [µg/mL]","IC50 (µg/mL), pseudovirus neutralization [23] [µg/mL]","IC50 (µg/mL), pseudovirus neutralization [24] [µg/mL]","IC50, pseudovirus neutralization [25] [µg/mL]","IC50, pseudovirus neutralization [26] [µg/mL]","IC50, pseudovirus neutralization [27] [µg/mL]","IC50 (µg/mL), pseudovirus neutralization [28] [µg/mL]","IC50 (µg/mL), pseudovirus neutralization [29] [µg/mL]","IC50 (µg/mL), pseudovirus neutralization [30] [µg/mL]","IC50 (µg/mL), pseudovirus neutralization [31] [µg/mL]","IC50 (µg/mL), pseudovirus neutralization [32] [µg/mL]","IC50, pseudovirus neutralization [33] [µg/mL]","IC50, pseudovirus neutralization [34] [µg/mL]",also measured
4858_P08 (PGT-123) (antibody),> 10,> 50,19.2,> 50,0.3,0.9,1.2,> 10,,,,,,,,,,,,,
PGT-143 (4980_N08) (antibody),,,,,,,,,,,,,,,,,,,,,IC50 [8]: 0.156 µg/mL
PGT-142 (4995_E20) (antibody),,,,,,,,,,,,,,,,,,,,,IC50 [8]: 0.081 µg/mL
1496_C09 (PG9) (TCN-109) (antibody),1.91,31.5,,,,,,0.687,,,,,,,,,,,,,"IC50 (µg/ml), pseudovirus neutralization [9]: 0.18 µg/mL; neutralization IC50 [10]: 0.111 µg/mL; IC50 (µg/ml), pseudovirus neutralization [11]: 0.27 µg/mL; IC50, pseudovirus neutralization [12]: 1.91 µg/mL; IC50 (µg/ml), pseudovirus neutralization [13]: 29.6 µg/mL; IC90 (neutralization of pseudovirus) [14]: 3.37 µg/mL; IC50 (µg/ml), pseudovirus neutralization [15]: 5.67 µg/mL; IC50 (µg/ml), pseudovirus neutralization [16]: 0.65 µg/mL; IC50 (µg/mL), pseudovirus neutralization [17]: 1.98 µg/mL; IC50 (µg/ml), pseudovirus neutralization [18]: 4.01 µg/mL; IC50 (µg/ml), pseudovirus neutralization [19]: 5.43 µg/mL; IC50 [20]: 0.01 µg/mL; IC50 (µg/ml), pseudovirus neutralization [21]: 2.97 µg/mL; IC50 (µg/ml), pseudovirus neutralization [22]: 29.7 µg/mL"
5114_A19 (PGT-128) (antibody),,,,,1.4,2,0.9,,> 50,0.01,0.005,0.037,3.93,0.019,0.03,0.011,0.027,4.54,1.06,> 50,"IC50, pseudovirus neutralization [35]: 10.5 µg/mL"
PGT-144 (4970_K22) (antibody),,,,,,,,,,,,,,,,,,,,,IC50 [8]: 44.6 µg/mL
PGT-141 (4964_G22; 4993_K13) (antibody),,,,,,,,,,,,,,,,,,,,,IC50 [8]: 0.118 µg/mL
5329_C19 (PGT-136) (antibody),,,,,,,,,> 50,> 50,> 50,> 50,> 50,> 50,> 50,> 50,> 50,2.42,> 50,> 50,"IC50, pseudovirus neutralization [35]: > 50 µg/mL"
4838_L06 (PGT-121) (antibody),> 10,,,16.9,,,,> 10,,,,,,,,,,,,,
5141_B17 (PGT-126) (antibody),> 10,> 50,> 50,> 50,0.4,0.7,1.7,> 10,,,,,,,,,,,,,
5343_B08 (PGT-135) (antibody),,,,,1.2,0.3,1,,> 50,0.068,> 50,> 50,> 50,> 50,> 50,> 50,0.211,0.964,> 50,> 50,"IC50, pseudovirus neutralization [35]: > 50 µg/mL"
5145_B14 (PGT-127) (antibody),,> 50,> 50,> 50,2.2,1.5,2.4,,,,,,,,,,,,,,
4877_D15 (PGT-122) (antibody),> 10,> 50,> 50,> 50,,,,> 10,,,,,,,,,,,,,
PGV04 (antibody),,1.51,2.48,,,,,,,,,,,,,,,0.072,,,"IC50 (µg/mL), pseudovirus neutralization [17]: 0.083 µg/mL; IC50 (µg/mL), pseudovirus neutralization [36]: 1.61 µg/mL"
5147_N06 (PGT-130) (antibody),> 10,,,,0.7,2.9,1,> 10,> 50,0.037,0.308,0.54,> 50,> 50,0.935,0.869,0.023,> 50,> 50,> 50,"IC50, pseudovirus neutralization [35]: > 50 µg/mL"
5136_H01 (PGT-131) (antibody),,,,,1,11,0.9,,> 50,0.041,0.035,1.04,> 50,> 50,1.36,11.2,0.114,> 50,> 50,> 50,"IC50, pseudovirus neutralization [35]: > 50 µg/mL"
5345_I01 (PGT-137) (antibody),,,,,,,,,> 50,0.092,> 50,> 50,> 50,8.03,> 50,> 50,40.3,6.23,> 50,> 50,"IC50, pseudovirus neutralization [35]: > 50 µg/mL"
5123_A06 (PGT-125) (antibody),> 10,> 50,> 50,> 50,0.3,1.2,1.6,> 10,,,,,,,,,,,,,"Neutralization by PGT-125, IC50 [22]: > 10 µg/mL; Neutralization by PGT-125, IC80 [22]: > 10 µg/mL; Neutralization by PGT-125, IC90 [22]: > 10 µg/mL; Neutralization by PGT-125, IC95 [22]: > 10 µg/mL"
PGT-145 (4995_P16) (antibody),,,,,,,,,,,,,,,,,,,,,IC50 [8]: 0.003 µg/mL
